Molecular target: Dps (Escherichia coli) (UniProt P0ABT2)
Assay: AFM
Details: EMSA: 50 mM Tris-HCl pH 7.5, 0.1 mM EDTA, 50 mM NaCl, 37°C 30 min, footprinting: 50 mM Tris-HCl pH 8.0, 0.1 mM EDTA, 0.1 mM DTT, 10 mM MgCl2, 50 mM NaCl …

Row | Substance | binding signal (nm DNA per bound Dps) | binding signal (nm DNA per bound Dps) (nicked at GAGTC sites (9 sites), 4 nt 3' of the site, top strand)
1 | pET28b native | 135 | –
2 | pET28b nicked with Nt.BspD6I | – | 117
